From patent publication US20260242478A1 (published 2026)
Where no end group is shown, it is not given here.

Key:
[1] = target: T1, Anti-CD28 Fab (SEQ ID NOs: 696, 697); assay: phage ELISA; captured anti-CD28 Fab pre-incubated with CD28 antigen as competitor, anti-M13 HRP detection;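 also: crude clonal phage supernatants screened by ELISA, with wells pre-incubated with CD28 antigen in blocking buffer, compared against wells given blocking buffer alone as control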
T1 construct: In the phage ELISA the Fab was biotinylated and captured on neutravidin coated plates
T1 sequence (VH, as listed by the source, chain 1 of 2): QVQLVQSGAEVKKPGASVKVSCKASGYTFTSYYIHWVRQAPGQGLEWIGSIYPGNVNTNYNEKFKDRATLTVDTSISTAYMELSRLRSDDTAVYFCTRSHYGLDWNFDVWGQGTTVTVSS
T1 sequence (VL, as listed by the source, chain 2 of 2): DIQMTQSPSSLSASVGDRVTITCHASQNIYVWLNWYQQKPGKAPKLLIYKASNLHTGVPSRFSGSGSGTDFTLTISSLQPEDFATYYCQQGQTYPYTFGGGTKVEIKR
Experimental: (§1) After panning, phage infected bacteria were plated out and colonies picked into 96 well blocks. Clonal phage was then amplified and separated from bacterial cells via centrifugation.
(§2) Clonal phage were harvested as crude supematants and screened via standard ELISAs. […] Prior to the addition of clonal phage, wells were incubated with blocking buffer and CD28 antigen or blocking buffer alone. Without washing or aspirating, clonal phage supematants were then added to the wells and incubated for a short time. Wells were then washed followed by detection of bound phage using a horse radish conjugated anti-M13 antibody. Clonal phage of interest were then sent for sequence analysis.

[2] = target: T1, Anti-CD28 Fab (SEQ ID NOs: 696, 697); assay: phage ELISA; biotinylated anti-CD28 Fab on neutravidin plate, clonal phage supernatant, anti-M13 HRP detection;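 also: crude supernatants of single phage clones picked after panning were screened for binding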
[3] = target: T2, Anti-CD28 Fab (SEQ ID NOs: 696, 697); assay: phage binding ELISA; Fab-coated wells pre-incubated with CD28 antigen as competitor, anti-M13 HRP detection;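 also: crude clonal phage supernatants from panned colonies added to wells after blocking buffer plus CD28 treatment, bound phage measured after a brief incubation and washing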
T2 construct: In the phage ELISA the Fab was biotinylated and captured on neutravidin coated plates
T2 sequence (VH, as listed by the source, chain 1 of 2): as the sequence (VH, as listed by the source, chain 1 of 2) above
T2 sequence (VL, as listed by the source, chain 2 of 2): as the sequence (VL, as listed by the source, chain 2 of 2) above
Experimental: as §1, §2

[4] = target: T2, Anti-CD28 Fab (SEQ ID NOs: 696, 697); assay: phage binding ELISA; biotinylated anti-CD28 Fab on neutravidin plate, clonal phage supernatant, anti-M13 HRP detection
Experimental: as §1, §2

[5] = target: T3, Anti-CD28 Fab (SEQ ID NOs: 696, 697); assay: phage binding ELISA; biotinylated anti-CD28 Fab on neutravidin plate, clonal phage detected with anti-M13 HRP
T3 construct: In the phage ELISA the Fab was biotinylated and captured on neutravidin coated plates
T3 sequence (VH, as listed by the source, chain 1 of 2): as the sequence (VH, as listed by the source, chain 1 of 2) above
T3 sequence (VL, as listed by the source, chain 2 of 2): as the sequence (VL, as listed by the source, chain 2 of 2) above
Experimental: as §1, §2

[6] = target: T3, Anti-CD28 Fab (SEQ ID NOs: 696, 697); assay: phage binding ELISA; Fab-coated wells pre-incubated with CD28 antigen as competitor, phage detected with anti-M13 HRP
Experimental: as §1, §2

Binder | Anti-CD28 Fab signal in the presence of CD28 [3] | Anti-CD28 Fab signal (phage binding ELISA) [4] | Anti-CD28 Fab signal (phage binding ELISA) [5] | Anti-CD28 Fab signal in the presence of CD28 (phage binding ELISA) [6] | also measured
YCSEHQIIFIQKCL (Tested as clonal phage supernatant; not shown: pIII coat protein of the bacteriophage to which the peptide is fused) [Phage-1104 (Peptide-87 library clone, SEQ ID NO: 1420)] | – | – | – | – | Anti-CD28 Fab signal in the presence of CD28 (phage binding ELISA) [1]: 0.08; Anti-CD28 Fab signal (phage binding ELISA) [2]: 1.32
YCDGHLPLYMQKCF (Tested as clonal phage supernatant; not shown: pIII coat protein of the bacteriophage to which the peptide is fused) [Phage-1102 (Peptide-87 library clone, SEQ ID NO: 1418)] | – | – | – | – | Anti-CD28 Fab signal in the presence of CD28 (phage binding ELISA) [1]: 0.1; Anti-CD28 Fab signal (phage binding ELISA) [2]: 1.33
YCAGHNAQYMSKCL (cysteine pairing not given here; also: displayed fused to phage pIII protein, fusion end and linker not given here, Clonal phage of the peptide-87 library, tested as crude supernatant; not shown: fused to the pIII filament protein of the bacteriophage) [Phage-995] | 0.05 | 1.55 | – | – | –
YCAGHSEEYMDKCL (cysteine pairing not given here; also: displayed fused to phage pIII protein, fusion end and linker not given here, Clonal phage of the peptide-87 library, tested as crude supernatant; not shown: fused to the pIII filament protein of the bacteriophage) [Phage-989] | 0.05 | 1.55 | – | – | –
YCDGHLSEYIGKCL (cysteine pairing not given here; also: displayed as fusion to phage pIII, linker not given here) [Phage-1079] | – | – | 1.37 | 0.06 | –
YCEGHLDEYLQKCL (cysteine pairing not given here; also: displayed as fusion to phage pIII, linker not given here) [Phage-1076] | – | – | 1.38 | 0.07 | –
YCDGHSQAHMQKCL (cysteine pairing not given here; also: displayed fused to phage pIII protein, fusion end and linker not given here, Clonal phage of the peptide-87 library, tested as crude supernatant; not shown: fused to the pIII filament protein of the bacteriophage) [Phage-992] | 0.08 | 1.55 | – | – | –
YCEGHSQLYMAKCL (cysteine pairing not given here; also: displayed as fusion to phage pIII, linker not given here) [Phage-1080] | – | – | 1.37 | 0.07 | –
YCDGHSETYLWKCL (cysteine pairing not given here; also: displayed as fusion to phage pIII, linker not given here) [Phage-1081] | – | – | 1.37 | 0.1 | –
YCEGHLPEYMIKCI (cysteine pairing not given here; also: displayed as fusion to phage pIII, linker not given here) [Phage-1083] | – | – | 1.36 | 0.1 | –
YCAGHLPMYMQKCL (Tested as clonal phage supernatant; not shown: pIII coat protein of the bacteriophage to which the peptide is fused) [Phage-1103 (Peptide-87 library clone, SEQ ID NO: 1419)] | – | – | – | – | Anti-CD28 Fab signal in the presence of CD28 (phage binding ELISA) [1]: 0.08; Anti-CD28 Fab signal (phage binding ELISA) [2]: 1.33
YCEGHLPMYMQKCL (Tested as clonal phage supernatant; not shown: pIII coat protein of the bacteriophage to which the peptide is fused) [Phage-1110 (Peptide-87 library clone, SEQ ID NO: 1426)] | – | – | – | – | Anti-CD28 Fab signal in the presence of CD28 (phage binding ELISA) [1]: 0.08; Anti-CD28 Fab signal (phage binding ELISA) [2]: 1.31
YCDGHQPQYMSKCL (cysteine pairing not given here; also: displayed as fusion to phage pIII, linker not given here) [Phage-1078] | – | – | 1.38 | 0.09 | –
YCDGHLALYMWKCL (cysteine pairing not given here; also: displayed as fusion to phage pIII, linker not given here) [Phage-1087] | – | – | 1.36 | 0.17 | –
YCDGHAPEYIQKCL (cysteine pairing not given here; also: displayed as fusion to phage pIII, linker not given here) [Phage-1075] | – | – | 1.38 | 0.06 | –
YCAGHTSEYMSKCL (cysteine pairing not given here; also: displayed as fusion to phage pIII, linker not given here) [Phage-1084] | – | – | 1.36 | 0.07 | –
YCDGHVKEYMYKCL (cysteine pairing not given here; also: displayed as fusion to phage pIII, linker not given here) [Phage-1086] | – | – | 1.36 | 0.06 | –
YCDGHSEVYMSKCL (cysteine pairing not given here; also: displayed fused to phage pIII protein, fusion end and linker not given here, Clonal phage of the peptide-87 library, tested as crude supernatant; not shown: fused to the pIII filament protein of the bacteriophage) [Phage-990] | 0.06 | 1.55 | – | – | –
YCDGHLPVYMMKCL (cysteine pairing not given here; also: displayed fused to phage pIII protein, fusion end and linker not given here, Clonal phage of the peptide-87 library, tested as crude supernatant; not shown: fused to the pIII filament protein of the bacteriophage) [Phage-994] | 0.07 | 1.55 | – | – | –
YCAGHDQQYMEKCL (cysteine pairing not given here; also: displayed fused to phage pIII protein, fusion end and linker not given here, Clonal phage of the peptide-87 library, tested as crude supernatant; not shown: fused to the pIII filament protein of the bacteriophage) [Phage-993] | 0.23 | 1.55 | – | – | –
YCDGHLQEYMQKCL (cysteine pairing not given here; also: displayed as fusion to phage pIII, linker not given here) [Phage-1077] | – | – | 1.38 | 0.06 | –
YCEGHTLEYMWKCL (cysteine pairing not given here; also: displayed fused to phage pIII protein, fusion end and linker not given here, Clonal phage of the peptide-87 library, tested as crude supernatant; not shown: fused to the pIII filament protein of the bacteriophage) [Phage-991] | 0.33 | 1.55 | – | – | –
YCEGHLPAYMGKCI (cysteine pairing not given here; also: displayed as fusion to phage pIII, linker not given here) [Phage-1082] | – | – | 1.37 | 0.09 | –
YCDGHTSEYMTKCL (cysteine pairing not given here; also: displayed fused to phage pIII protein, fusion end and linker not given here, Clonal phage of the peptide-87 library, tested as crude supernatant; not shown: fused to the pIII filament protein of the bacteriophage) [Phage-996] | 0.06 | 1.54 | – | – | –
YCDGHLSIYMTKCL (cysteine pairing not given here; also: displayed as fusion to phage pIII, linker not given here) [Phage-1088] | – | – | 1.36 | 0.07 | –
YCDGHMKEYMLKCL (cysteine pairing not given here; also: displayed as fusion to phage pIII, linker not given here) [Phage-1085] | – | – | 1.36 | 0.06 | –
